Test results from US20150307599A1 (GARVAN INSTITUTE OF MEDICAL RESEARCH, published 2015).
Where no end group is shown, it is not given here.

What was measured:
1p22-MARYYSALRH = target: T1, 1p22-MARYYSALRH; test: indirect ELISA, peptide coated on the plate (20 µg/mL), MAb 5E12-B7 at 1 µg/mL, O.D. 450 nm
T1 construct: NPY residues 17-26; also called Peptide 1p22 (10 mer shifting across NPY)
T1 peptide: MARYYSALRH-NH2
Procedure: (§1) ELISA was used to map the reactivity of purified MAb 5E12-B7 against the peptides described in Table 3. Briefly, ELISA microwell plates (96-well Maxisorp, Nunc) were coated overnight at 4° C. with 50 μL of mapping peptides (Table 3) diluted to 20 μg/mL in carbonate coating buffer (CCB). Between each of the following steps, microwell plates were washed three times with PBST using a plate washer (BioTek). Coated wells were blocked with 200 μL PBS containing 5% w/v skim milk (Diploma). Blocked wells were incubated for 1 hr with 50 μL of MAb 5E12-B7 diluted to 1 μg/mL in skim milk/PBST. Wells were then incubated for 1 hr with 50 μL Peroxidase-conjugated AffiniPure F(ab)2 fragment goat anti-mouse secondary antibody (Jackson) diluted 1:5000 in skim milk/PBST. Ig binding was detected by incubation of wells with 50 μL TMB substrate (Becton Dickinson). Substrate reaction was stopped after 15 min with 50 μL 1M H₂SO₄ and O.D. 450 nm was measured.

1p21-DMARYYSALR = target: T2, 1p21-DMARYYSALR; test: as above
T2 construct: NPY residues 16-25; also called Peptide 1p21 (10 mer shifting across NPY)
T2 peptide: DMARYYSALR-NH2
Procedure: as §1

1p31-HYINLITRQR = target: T3, 1p31-HYINLITRQR; test: as above
T3 construct: NPY residues 26-35; also called Peptide 1p31 (10 mer shifting across NPY)
T3 peptide: HYINLITRQR-NH2
Procedure: as §1

1p19-AEDMARYYSA = target: T4, 1p19-AEDMARYYSA; test: as above
T4 construct: also called Peptide 1p19 (10 mer shifting across NPY)
T4 peptide: AEDMARYYSA-NH2
Procedure: as §1

1p25-YYSALRHYIN = target: T5, 1p25-YYSALRHYIN; test: as above
T5 construct: NPY residues 20-29; also called Peptide 1p25 (10 mer shifting across NPY)
T5 peptide: YYSALRHYIN-NH2
Procedure: as §1

1p23-ARYYSALRHY = target: T6, 1p23-ARYYSALRHY; test: as above
T6 construct: NPY residues 18-27; also called Peptide 1p23 (10 mer shifting across NPY)
T6 peptide: ARYYSALRHY-NH2
Procedure: as §1

1p27-SALRHYINLI = target: T7, 1p27-SALRHYINLI; test: as above
T7 construct: NPY residues 22-31; also called Peptide 1p27 (10 mer shifting across NPY)
T7 peptide: SALRHYINLI-NH2
Procedure: as §1

1p30-RHYINLITRQ = target: T8, 1p30-RHYINLITRQ; test: as above
T8 construct: NPY residues 25-34; also called Peptide 1p30 (10 mer shifting across NPY)
T8 peptide: RHYINLITRQ-NH2
Procedure: as §1

1p29-LRHYINLITR = target: T9, 1p29-LRHYINLITR; test: as above
T9 construct: NPY residues 24-33; also called Peptide 1p29 (10 mer shifting across NPY)
T9 peptide: LRHYINLITR-NH2
Procedure: as §1

human PYY (Phoenix) = target: T10, human PYY (Phoenix) (human, C-terminal amide (-NH2)); test: SPR (Biacore 2000), biotinylated MAb on SA chip, peptide in solution
T10 construct: 36-residue whole peptide; also called hPYY
Procedure: (§2) Epitope mapping and determination of the affinity of MAb 5E12-B7 was also performed using a Biacore 2000 unit (GE Healthcare). Briefly, purified MAb 5E12-B7 was biotinylated as described above, except that the biotinylation reaction was performed at a 20:1 molar ratio of biotin:Ig. An SA-Chip (GE Healthcare) was docked into the Biacore 2000 unit and HBS-EP buffer (GE) was allowed to run over all 4 flow channels at 40 μL/min until signal had stabilized. The flow path was then switched to channel 4 only and HBS-EP containing 60 μg/mL biotinylated antibody was injected at 40 μL/min for 5 min to couple MAb 5E12-B7 to the chip via biotin-streptavidin binding. HBS-EP buffer was then run over channel 4 at 40 μL/min for over 30 min to remove all uncoupled Ig from the Biacore system then the flow path was changed to pass through all 4 flow channels. Association and dissociation of the peptides in Table 3 was measured using the Biacore Application Wizard. In each case, a baseline was established by passing HBS-EP over all 4 channels at 40 μL/min for 1 min before association was measure by injection of peptide (diluted to 1, 10, 100 or 1000 nM in HBS-EP) at 40 μL/min for 5 min. Dissociation was measured by allowing HBS-EP to pass over all 4 channels at 40 μL/min for 30 min. The kd, kₐ and KD were determined for each peptide by curve fitting using the BIAevalutation software.
(§3) The affinity of MAb 5E12-B7 to NPY, PYY and PP peptides was measured using a Biacore-2000 (GE-healthcare). Biotinylated MAb was loaded onto a single channel of a streptavidin chip, and dilute samples (1 nM-1 μM) of NPY, mPYY, hPYY, mPP and hPP were then run over all four channels of the chip to obtain blank-subtracted readings for peptide on and off-rates. Using this method, significant and/or detectable binding of MAb 5E12-B7 to NPY, mPYY and hPYY was detected. In contrast, no significant and/or detectable binding to mPP and hPP could be detected.

NPY (mouse NPY, Phoenix) = target: T11, NPY (mouse NPY, Phoenix) (mouse, C-terminal amide (-NH2)); test: as above
T11 construct: 36-residue whole peptide bought from Phoenix Peptides; also called mNPY; neuropeptide Y
Procedure: as §2, §3

T10 sequence (peptide, as listed by the source): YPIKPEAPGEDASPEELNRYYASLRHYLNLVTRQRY

- binding result (1p22-MARYYSALRH): no binding (tested: 1 µg/mL)
- binding result (1p21-DMARYYSALR): no binding (tested: 1 µg/mL)
- binding result (1p31-HYINLITRQR): no binding (tested: 1 µg/mL)
- binding result (1p19-AEDMARYYSA): no binding (tested: 1 µg/mL)
- binding result (1p25-YYSALRHYIN): no binding (tested: 1 µg/mL)
- binding result (1p23-ARYYSALRHY): no binding (tested: 1 µg/mL)
- binding result (1p27-SALRHYINLI): no binding (tested: 1 µg/mL)
- binding result (1p30-RHYINLITRQ): no binding (tested: 1 µg/mL)
- binding result (1p29-LRHYINLITR): no binding (tested: 1 µg/mL)
- Kd (human PYY (Phoenix)): 5.97 nM
- koff (human PYY (Phoenix)): 0.00138 s⁻¹
- kon (human PYY (Phoenix)): 251000 M⁻¹ s⁻¹
- Kd (NPY (mouse NPY, Phoenix)): 9.79 nM
- koff (NPY (mouse NPY, Phoenix)): 0.00142 s⁻¹
- kon (NPY (mouse NPY, Phoenix)): 149000 M⁻¹ s⁻¹
B1: MAb 5E12-B7 (antibody, V domains shown)
VH: QVQLQHPGTEVVKPGASVKLSCKASGYTFTNYWMHWVKQRPGQGLEWIGNIDPSNGGTNYNEKFKSKATLTVDKSSSTAYMQLSSLTSEDSAVYYCASFAYWGQGTLVTVSA
VL: DIQMTQSPASLSASVGETVTITCRASGNIHNYLAWYQQKQGKSPQLLVYNAKTLADGVPSRFSGSGSGTQYSLKISSLRPEDFGSYYCQHFWSPPFTFGSGTKLEIK
notes: Biotinylated for the Biacore and Octet assays; also called PYY/NPY antibody (5E12); anti-NPY/PYY antibody 5E12
